Assay: yeast display, Sf9 membrane polyspecificity reagent, FACS + sequencing; frameworks hold sequencing errors
Summary of the method: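 After 36–48 hours of galactose induction, yeast (Saccharomyces cerevisiae BJ5465) displaying a synthetic nanobody library were stained at 4 °C for 1 hour with 10% biotinylated, detergent-solubilized Sf9 membrane reagent. Streptavidin microbeads enriched the stained cells before FACS sorting into low and high (top ~1%) gates on anti-HA and streptavidin fluorescence. Each clone's polyreactivity label reflects its gate of origin.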

Sequence	polyreactivity (PSR sort gate)
QVQLVESGGGLVQAGGSLRLSCAASGSTFYDYAMGWYRQAPGKERELVAAISRGGSTYYADCVKGRFTISRDNAKNTVYLQMNSLKPEDTAVYYCAAGRSYDSGFYYWGQGTQVTVSS	low polyreactivity
QVQLVESGGGLVQAGGSLRLSCAASGSTFYDYAMGWYRQAPGKERVLVAAISTSGGSTYADSVYGRFTISRDNAKNTVYLQMNSLKPEDTAVYYCNADDPGYAVPWYWFKYDYWGQGTQVTVSS	low polyreactivity
QVQLVESGGGLVQAGGSLRLSCAASGSTFYDYAMGWYRQAPGKESELVAAITSSGASTYYADSVKGRFTISRDNAKNTVYLQMNSLKPEDTAVYYCAARKVWRSIRVALDYWGQGTQVTVSS	high polyreactivity
QVQLVESGGGLVQAGGSLRLSCAASGSTFYEYAMGWYRQAPGKERELVAAITSGGSTYYADSVKGRFTISRDNAKNTVYLQMNSLKPEDTAVYYCAADPRIRRGDRSTHGYDYWGQGTQVTVSS	low polyreactivity
QVQLVESGGGLVQAGGSLRLSCAASGSTFYFIAMGWFRQAPGKEWELVAVIDGSGGFTYYADSVKGRFTISRDNAKNTVYLQMNSLKPEDTAVYYCAADKTQSHYDDWGQGTQVTVTS	high polyreactivity
QVQLVESGGGLVQAGGSLRLSCAASGSTFYFNAMGWYRQAPGKARELVAAIDWSGGSTYYADSVKGRFTISRDNAKNTVYLQMNSLKPEDTAVYYCAAPYHYYGNTVGYADYDYWGQGTQVTVSS	low polyreactivity
QVQLVESGGGLVQAGGSLRLSCAASGSTFYFNAMGWYRQAPGKERELVAGIRYSGSSTYYADSVKGRFTISRDNAKNTVYLQMNSLKPVDTAVYYCAASLWRWRFSGFGYWGQGTQVTVSS	high polyreactivity
QVQLVESGGGLVQAGGSLRLSCAASGSTFYFYVLGWYRQAPGKERELVAAISWGGASTYYAVSVKGRFTISRDHAKNTVYLQLNSLKPEDTAVYNCTDRLRVRYDYWGQGTQVTVSS	low polyreactivity
QVQLVESGGGLVQAGGSLRLSCAASGSTFYGNAMAWYRQAPGKEREFVAAISSGGRTYYADSVKGRFTISRDNAKNTVYLQMNSLKPEDTAVYYCAVRRSAFYARFGRNYWGQGTQVTVSS	low polyreactivity
QVQLVESGGGLVQAGGSLRLSCAASGSTFYGYAMGGYRQAPGKERELVAAISSSGGTTYYADSVKGRFTMSRDNAKNTVYLQMNSLKPEDTAVYYCAARRRSGTYWRSANDYWGQGTQVTVSS	high polyreactivity
QVQLVESGGGLVQAGGSLRLSCAASGSTFYGYAMGWYRQAPGKDRELVAAISSGGRTNYADSVKGRFTISRDNAKNTVYLQLHSLKPEDTAVYYCNARRIYGWWEFDYWGQGTQVTVSS	low polyreactivity
QVQLVESGGGLVQAGGSLRLSCAASGSTFYGYTMGWYRQAPGKERELVAAISWRGGSTYYADSVKGRFTISRDNAKNTVYLQMNSLKPEDTAVYYFAARPYIVTYPWRRYDYWGQGTQVTVSS	high polyreactivity
QVQLVESGGGLVQAGGSLRLSCAASGSTFYGYTMGWYRQATGKERELVAVITYGGSTYYADSVKGRFTISRDNAKNTVYLQMNSLKPEDTAVYYCAKRYAYPAYGRPWRIGRTYDYWGQGTQVTVSS	low polyreactivity
QVQLVESGGGLVQAGGSLRLSCAASGSTFYGYVMGWYRQAPGKERELVAAITWRGTSTYYADSVKGRFTISRDNAKNTVYLQMNSLKPEDTAVYYCRGYYDRDVDYWGQGTQVTVSS	high polyreactivity
QVQLVESGGGLVQAGGSLRLSCAASGSTFYGYVMGWYRQAPGKERELVAGITRGGSTNYADSVKGRFTISRDNAKNTVYLQMNSLKPEDTAVYYCATRYFSRYYYWGQGTQVTVSS	high polyreactivity
QVQLVESGGGLVQAGGSLRLSCAASGSTFYHYAMGWYRQAPGKERELVAAISWSGGSTYYADSVKGRFTISRDNAKNTVYLQMNSLKPEDTAVYYCNKAGRSWFRTGLGYWGKGTQVTVSS	high polyreactivity
QVQLVESGGGLVQAGGSLRLSCAASGSTFYHYAMVWYRQAPGKERELVAAISSSGGRTYYADSVKGRFTISRDNAKNTVYLKMNSLKPEDTAVYYCAARAKTSGSIEDYWGQGTQVTVSS	high polyreactivity
QVQLVESGGGLVQAGGSLRLSCAASGSTFYINALGGYRQAPGTERELVAAITWNSDSTYYADSVKGRFTISRDNAKNTVYLQMNSLKPEDTAVYYCNKDRIIWGRLYEEGDYWGQGTQVTVSS	low polyreactivity
QVQLVESGGGLVQAGGSLRLSCAASGSTFYINTMGRYLQAPGKEREFVAAITWSGGSTYYADSVKGRFTISRDNAKNTVYLQMNSLKPEDTAVYYCAADLYVGDMDYWGQCTQVTVSS	low polyreactivity
QVQLVESGGGLVQAGGSLRLSCAASGSTFYIYAMGWYRQAPGKERELVARISGSGGSTYYADSVKVRFTISRDNAKNTVYLQMNSLKPEDTAVYYCAVDPPYSDSLSRYGYWGQGTQVTVSS	low polyreactivity
QVQLVESGGGLVQAGGSLRLSCAASGSTFYIYAMGWYRQAPGKERELVATISRGGSTNYADSVKGRFTISRDNAKNTVYLQMNSLKPEDTAVYYCAAEAAFTSYWWSVTYPYDYWGQGTQVTVSS	high polyreactivity
QVQLVESGGGLVQAGGSLRLSCAASGSTFYIYVMGWYRQAPGKERELVATITWGGVSTYYADSVKGRFTISRDNAKNTVYLQMNSLKTEDTAVYYCATRGKSHGQQFNYWGQGTQVTVSS	high polyreactivity

Sequence	polyreactivity (PSR sort gate)
QVQLVESGGGLVQAGGSLRLSCAASGSTFYKYAMGGYRQAPGKERELVAAISTRGGSTYYADSVKGRFTISRDNAKNTVYLQMNSLKPEDTAVYYCAADGSGGHDDYWGQGTQVTVSS	high polyreactivity
QVQLVESGGGLVQAGGSLRLSCAASGSTFYKYAMGWYRQAAGKERELVASISRSGGSTSYADSVKGRFTISRDNGKNTVYLQMYCLKPEDTAVYYCAATWRQHPGSMGYWGQGTQVTVSS	high polyreactivity
QVQLVESGGGLVQAGGSLRLSCAASGSTFYKYAMGWYRQAPGKERELVAAISTRGGSTYYADSVKWRFTISRDNAKNTVYLQMNSLKPEDTAVFYCAADGRGGHDVYWGQGSQVTVSS	high polyreactivity
QVQLVESGGGLVQAGGSLRLSCAASGSTFYKYAMGWYRQAPGKERELVASISRSGGSTSYADSVKGRFTISRDYAKNTVYLQMNSLKPEDTAVYYCAATWRQHPGSMGYWGQGTQVTVSS	high polyreactivity
QVQLVESGGGLVQAGGSLRLSCAASGSTFYKYAMGWYRQAPGKERELVATINISGGSTSYADSVKGRFTISRDYAKNTVYLQMNSLKPEDTAVYYCAASLTRHGYYRRFDYWGQGTQVTVSS	high polyreactivity
QVQLVESGGGLVQAGGSLRLSCAASGSTFYKYVMGWYRQAPGKERELVAAISWSGGSTYYADSVKGRFTISRDNAKNTVYLQMNSLKPEDPAVYYCAAETYAYLFHTYDYWGQGTQVTVSS	low polyreactivity
QVQLVESGGGLVQAGGSLRLSCAASGSTFYLNVMGWYRQAPGKERELVAAISSSGGSTYYADSVKGRFTISRDNAKNTVYLQMNSLKPEDTAVYYCNKVSAFPHYSGYDYWGQGTQVTVSS	low polyreactivity
QVQLVESGGGLVQAGGSLRLSCAASGSTFYLYAMGWYRQAPGKEREFVAAISWSGGRTYYADSVKGRFTISRDNAKNTVYLQMNSLKPEYTAVYYCAARRRYTWQYTRYDMGYWGQGTQVTVSS	low polyreactivity
QVQLVESGGGLVQAGGSLRLSCAASGSTFYLYAMGWYRQAPGKERELVAAISRGGTTYYADSVKGRFTISRDNAKNTVYLKMNSLKPEDTAVYYCAARRPWWYGGGMDYWGQGTQVTVSS	high polyreactivity
QVQLVESGGGLVQAGGSLRLSCAASGSTFYLYAMGWYRQAPGKERELVAAISYSDGSTYYADSVKGRFTISRDNAKNTVYLQMNSMKPEDTAVYYCAAQHYVRSSIPGFIYYYWGQGTQVNVSS	high polyreactivity
QVQLVESGGGLVQAGGSLRLSCAASGSTFYLYAMGWYRQAPGKERELVAGITGSGGRTYYADSVKGRFTISRDNAKNTVYLQLNSLKPEDTAVYYCNKRRASWSPAGGTYNYWGQGSQVTVSS	low polyreactivity
QVQLVESGGGLVQAGGSLRLSCAASGSTFYLYARGWFSQAPGKVRELGAAIRTSGGSTYYADSGKGRFTISRDTAKNTVYLQMNSLKPEDTAVYSCTAAWPYNSVEYWGQGTQVTVSS	low polyreactivity
QVQLVESGGGLVQAGGSLRLSCAASGSTFYNNAMGWYRQAPGKEREFVAAIRYRGGSTYYADSVKGRFTISRDNAKNTVYLQMNSLKPEDTAVYYCAADQGVYRTYWVDYWGQGTQVTVSS	high polyreactivity
QVQLVESGGGLVQAGGSLRLSCAASGSTFYNNAMGWYRQAPGKERELVATISASSTSTYYADSVKGRFTISRDNAKNTVYLQMNSLKPEDTAVYYCAKDYVHGSTYGYYWYGYDYWGQGTQVTVSS	low polyreactivity
QVQLVESGGGLVQAGGSLRLSCAASGSTFYNYAMGWSRQAPGKERELVASITWNGGSTYYADSVKGRFTISRDNAKNTVYLQMNSLKPEDTAVYYCAADWTWTYPYDYWGQGTQVTVSS	low polyreactivity
QVQLVESGGGLVQAGGSLRLSCAASGSTFYNYAMGWYRQAPGKERELVASITWNGGSTYYADSVKGRFTISRDNAKNTVYLQMNSLKPEDTAVYYCAADWTWTYPYDYWGQGTQVTVSS	low polyreactivity
QVQLVESGGGLVQAGGSLRLSCAASGSTFYPNAMGWYRQAPGKERELVAAITDSVGTTNYADSVKGRFTISRDNAKNTVYLQINSLKPEDTAVYYCTAPIGGSYNTRRAAEYDYWGQGTQVTVSS	low polyreactivity
QVQLVESGGGLVQAGGSLRLSCAASGSTFYPTYAMGWYRQAPGKERELVATITGSGGSTYYADSVKGRFTSSRDNAKNTVYLQMNSLKPEDTAVYYCAADRWYSRYTRYGYWGQGTQVTVSS	low polyreactivity
QVQLVESGGGLVQAGGSLRLSCAASGSTFYPYAMGRYRQAPGKERELVAAISSGGSTSYADSVKGRFTISRDNAKNTVYLQLNSLKPEDTAVYYCNASSPGAVPVYDYDYWGQGTQVTVSS	low polyreactivity
QVQLVESGGGLVQAGGSLRLSCAASGSTFYPYAMGWYRPAPGKERELVAAINWSGGTTYYADSVKGRFTISRDNAKNTVYLQMNSLKPVDTAVYYCAADGYPPGYGYWGQGTQVTVSS	low polyreactivity
QVQLVESGGGLVQAGGSLRLSCAASGSTFYPYAMGWYRQAPGKEREFVAAIRSSGTSTYYADSVKGRFTISRDNAKNTVYLQMNSLKPEDTEVYYGAARVRGDSVSRTKPASIGGGSWGQGTQVTVSS	high polyreactivity

Reference: the nanobody polyreactivity screen of Harvey et al. (2022)
